Results as given in paper PMC5979607, “Crystal Structure of the Isocitrate Dehydrogenase 2 from Acinetobacter baumannii (AbIDH2) Reveals a Novel Dimeric Structure with Two Monomeric-IDH-Like Subunits” (International Journal of Molecular Sciences, 2018).

Assays:
[1] = system: O=C(O)CC(C(=O)O)C(O)C(=O)O; assay: purified protein; conditions: Mn2+ (2 mM MnCl2), NADP+ co-substrate, 35 mM Tris-HCl pH 7.5, 25 °C, DL-isocitrate in the assay
[2] = system: NC(=O)c1ccc[n+]([C@@H]2O[C@H](COP(=O)(O)OP(=O)(O)OC[C@H]3O[C@@H](n4cnc5c(N)ncnc54)[C@H](OP(=O)(O)O)[C@@H]3O)[C@@H](O)[C@H]2O)c1; assay: purified protein; conditions: Mn2+ (2 mM MnCl2), 1.0 mM isocitrate, 35 mM Tris-HCl pH 7.5, 25 °C, varied: cofactor
[3] = biological target: Isocitrate dehydrogenase 2 from Acinetobacter baumannii (AbIDH2) (Acinetobacter baumannii); assay: AUC; sedimentation velocity, Beckman XL-A, An-60 Ti rotor, 20 °C, 45,000 g, continuous c(s) distribution
[4] = biological target: Isocitrate dehydrogenase 2 from Acinetobacter baumannii (AbIDH2) (Acinetobacter baumannii); assay: SEC; analytical gel filtration, Superdex 200 10/300 column, 50 mM NaH2PO4 pH 7.5, 300 mM NaCl, flow rate 0.5 mL/min; mass from a calibration curve

stoichiometry N [3]	stoichiometry N [4]	Substance	Km [1] [µM]	kcat [1] [s⁻¹]	Km [2] [µM]	kcat [2] [s⁻¹]	kcat/Km [2] [M⁻¹ s⁻¹]
		AbIDH2 (Acinetobacter baumannii ATCC 19606 = CIP 70.34 = JCM 6841)	20.6 ± 3.1	39.2 ± 2.1	94 ± 6	36.9 ± 1.2	390000
2	2	Isocitrate dehydrogenase 2 from Acinetobacter baumannii (AbIDH2) (enzyme)					
